From patent CN112063765A (BEIJING XINSONG BIOLOGICAL TECH CO LTD, dated 2020)

Experiments:
Experiment in all cases: cell-based or functional assay
[1] = target: A/swine/Jalisco/12-13/2012(H1N1) (Influenza A virus …)
[2] = target: Solomon Islands/3/2006(H1N1) (Influenza A virus Solomon …)
[3] = target: New Caledonia/20/99(H1N1) (Influenza A virus New Caledonia/20/99 …)

B1: 3E6单克隆抗体 (antibody, V domains shown)
VH: EVQLEESGTELARPGASVKLALKASGYIFSSYSGQWIKQRPGAGLELIGYPYPGWIDTRYTQKLTGKATLTADKSSSTLYMQLSSLASEDSAVAYCAGSYFSSDAWGLGTTLAVSS
VL: DIVLTQSPALMAASAGEKVTITCAVSQSIQSGYLAWYQQKSGISPKPWIYDTSNQAGGVPARFSGAGSGTSYSLTITSMEAEDAATYYCAQGTTSPLSFGAGTKLELK
中和活性 (Lenti-pseudovirus, 293A细胞, β-gal; 抗体浓度 0.01μg/mL) [1]: 0.974
中和活性 (Lenti-pseudovirus, 293A细胞, β-gal; 抗体浓度 0.01μg/mL) [2]: 0.843
中和活性 (Lenti-pseudovirus, 293A细胞, β-gal; 抗体浓度 0.01μg/mL) [3]: 0.865
